According to article PMC3052743:

Biological target: T1, full-length gp130 with a C-terminal EYMPME (Glu-Glu) epitope tag, P40189
T1 chain: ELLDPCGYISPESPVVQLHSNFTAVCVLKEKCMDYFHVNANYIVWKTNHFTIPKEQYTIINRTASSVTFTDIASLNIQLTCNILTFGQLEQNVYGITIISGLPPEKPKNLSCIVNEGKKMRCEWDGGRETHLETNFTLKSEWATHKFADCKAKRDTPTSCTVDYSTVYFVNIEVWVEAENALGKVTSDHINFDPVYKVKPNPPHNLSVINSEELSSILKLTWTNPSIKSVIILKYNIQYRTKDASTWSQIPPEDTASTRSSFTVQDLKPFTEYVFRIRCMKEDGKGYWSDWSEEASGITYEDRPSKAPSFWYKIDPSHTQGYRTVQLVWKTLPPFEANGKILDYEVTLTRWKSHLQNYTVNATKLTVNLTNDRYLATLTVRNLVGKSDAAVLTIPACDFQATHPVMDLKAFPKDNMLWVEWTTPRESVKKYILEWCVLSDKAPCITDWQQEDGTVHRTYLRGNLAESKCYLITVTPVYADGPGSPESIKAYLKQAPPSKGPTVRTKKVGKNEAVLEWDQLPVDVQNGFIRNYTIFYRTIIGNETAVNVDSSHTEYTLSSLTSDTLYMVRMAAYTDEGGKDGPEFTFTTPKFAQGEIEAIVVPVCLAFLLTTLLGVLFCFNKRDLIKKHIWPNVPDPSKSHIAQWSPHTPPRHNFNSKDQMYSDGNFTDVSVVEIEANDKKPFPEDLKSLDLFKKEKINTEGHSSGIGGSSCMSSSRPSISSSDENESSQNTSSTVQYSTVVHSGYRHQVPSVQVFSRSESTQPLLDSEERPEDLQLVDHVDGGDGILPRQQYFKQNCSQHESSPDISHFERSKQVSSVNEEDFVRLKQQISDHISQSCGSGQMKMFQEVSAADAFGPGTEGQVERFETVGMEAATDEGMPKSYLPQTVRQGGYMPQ
Test: SEC
Settings: remark: other sources report otherwise

B1: full-length gp130 with a C-terminal EYMPME (Glu-Glu) epitope tag, P40189 23-918 (receptor)
chain: T1 chain
stoichiometry N: 2
